{
  "source": "patent US20230220068A1",
  "about": "(CODIAK BIOSCIENCES, published 2023)",
  "binders": {"B1": {"name": "mouse SIRPα (receptor, UniProt P97797 32-373, looked up)", "chain": "KELKVTQPEKSVSVAAGDSTVLNCTLTSLLPVGPIRWYRGVGPSRLLIYSFAGEYVPRIRNVSDTTKRNNMDFSIRISNVTPADAGIYYCVKFQKGSSEPDTEIQSGGGTEVYVLAKPSPPEVSGPADRGIPDQKVNFTCKSHGFSPRNITLKWFKDGQELHPLETTVNPSGKNVSYNISSTVRVVLNSMDVNSKVICEVAHITLDRSPLRGIANLSNFIRVSPTVKVTQQSPTSMNQVNLTCRAERFYPEDLQLIWLENGNVSRNDTPKNLTKNTDGTYNYTSLFLVNSSAHREDVVFTCQVKHDQQPAITRNHTVLGFAHSSDQGSMQTFPDNNATHNWN"}},
  "molecular_target": "T1, PrX (human, UniProt Q9P2B2)",
  "T1 construct": "also called PTGFRN overexpressing exosomes",
  "T1 sequence (scaffold on exosomes, looked up)": "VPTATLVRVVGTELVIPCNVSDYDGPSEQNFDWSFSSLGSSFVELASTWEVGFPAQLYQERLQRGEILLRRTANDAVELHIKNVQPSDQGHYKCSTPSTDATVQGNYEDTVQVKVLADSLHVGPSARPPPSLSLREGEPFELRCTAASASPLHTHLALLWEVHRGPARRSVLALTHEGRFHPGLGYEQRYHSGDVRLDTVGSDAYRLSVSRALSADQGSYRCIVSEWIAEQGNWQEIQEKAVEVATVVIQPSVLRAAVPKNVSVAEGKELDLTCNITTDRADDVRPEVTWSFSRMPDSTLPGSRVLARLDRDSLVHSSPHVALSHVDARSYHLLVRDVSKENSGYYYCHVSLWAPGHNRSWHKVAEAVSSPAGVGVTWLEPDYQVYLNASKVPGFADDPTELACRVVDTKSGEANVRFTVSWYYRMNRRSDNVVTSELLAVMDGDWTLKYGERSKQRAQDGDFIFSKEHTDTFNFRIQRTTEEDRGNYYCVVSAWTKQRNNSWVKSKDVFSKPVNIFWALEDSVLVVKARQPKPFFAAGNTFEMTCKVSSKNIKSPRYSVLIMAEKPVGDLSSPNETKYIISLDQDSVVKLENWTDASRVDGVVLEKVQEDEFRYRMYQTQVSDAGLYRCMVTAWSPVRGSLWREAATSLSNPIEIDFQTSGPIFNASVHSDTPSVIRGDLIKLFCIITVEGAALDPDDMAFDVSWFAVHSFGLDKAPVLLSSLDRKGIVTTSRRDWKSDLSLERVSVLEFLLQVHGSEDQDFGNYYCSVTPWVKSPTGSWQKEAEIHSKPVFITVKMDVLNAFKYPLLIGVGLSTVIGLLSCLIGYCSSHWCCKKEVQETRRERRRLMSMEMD",
  "assay": "Octet, exosomes on mouse SIRPα",
  "data": [
    {"binder": "B1", "values": [
      {"measurement": "binding result", "value": "no binding"}
    ]}
  ]
}
